{"source": "the supplement of paper PMC9112550", "about": "“Optimization of the antimicrobial peptide Bac7 by deep mutational scanning” (BMC Biology, 2022);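 note: peptides expressed intracellularly from a pBAD plasmid library in pooled LB shake-flask culture, induced with 0.3% L-arabinose, DNA abundance read by NGS, three biological replicates, DESeq2 with apeglm shrinkage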"}
{"test_system": "Escherichia coli TOP10", "assay": "shrunken log2 fold change of peptide-encoding DNA abundance (4.5 h post-induction vs induction); higher = less antimicrobial activity (less host growth inhibition)", "details": "time post-induction: 4.5 h; library: site-saturation at positions 5, 18, 19, 20"}
{"sequence": "RRIRIRPPRLPRPRPRPGSLPRP", "shrunken log2 fold change": -0.475}
{"sequence": "RRIRSRPPRLPRPRPRPMWEPRP", "shrunken log2 fold change": 0.0252}
{"sequence": "RRIRHRPPRLPRPRPRPWVVPRP", "shrunken log2 fold change": -0.48}
{"sequence": "RRIRERPPRLPRPRPRPKNVPRP", "shrunken log2 fold change": 0.0204}
{"sequence": "RRIRCRPPRLPRPRPRPLSEPRP", "shrunken log2 fold change": -0.219}
{"sequence": "RRIRTRPPRLPRPRPRPMQSPRP", "shrunken log2 fold change": -0.349}
{"sequence": "RRIRCRPPRLPRPRPRPHCCPRP", "shrunken log2 fold change": 0.0538}
{"sequence": "RRIRYRPPRLPRPRPRPYKHPRP", "shrunken log2 fold change": -1.18}
{"sequence": "RRIRIRPPRLPRPRPRPGHDPRP", "shrunken log2 fold change": 0.144}
{"sequence": "RRIRWRPPRLPRPRPRPMPPPRP", "shrunken log2 fold change": 0.411}
{"sequence": "RRIRWRPPRLPRPRPRPWYCPRP", "shrunken log2 fold change": 0.0408}
{"sequence": "RRIRARPPRLPRPRPRPCMNPRP", "shrunken log2 fold change": -0.0756}
{"sequence": "RRIRFRPPRLPRPRPRPHSVPRP", "shrunken log2 fold change": 0.036}
{"sequence": "RRIRHRPPRLPRPRPRPAMIPRP", "shrunken log2 fold change": -0.0435}
{"sequence": "RRIRTRPPRLPRPRPRPNYHPRP", "shrunken log2 fold change": -1.14}
{"sequence": "RRIRTRPPRLPRPRPRPGMGPRP", "shrunken log2 fold change": 0.104}
{"sequence": "RRIRHRPPRLPRPRPRPLKLPRP", "shrunken log2 fold change": 0.0187}
{"sequence": "RRIRYRPPRLPRPRPRPRVAPRP", "shrunken log2 fold change": 0.0343}
{"sequence": "RRIRLRPPRLPRPRPRPCWGPRP", "shrunken log2 fold change": 0.00437}
{"sequence": "RRIRLRPPRLPRPRPRPTTTPRP", "shrunken log2 fold change": 0.00266}
{"sequence": "RRIRSRPPRLPRPRPRPPEHPRP", "shrunken log2 fold change": 0.169}
{"sequence": "RRIRFRPPRLPRPRPRPHAGPRP", "shrunken log2 fold change": -0.024}
{"sequence": "RRIRQRPPRLPRPRPRPRSDPRP", "shrunken log2 fold change": -0.208}
{"sequence": "RRIRYRPPRLPRPRPRPRQPPRP", "shrunken log2 fold change": 0.137}
{"sequence": "RRIRTRPPRLPRPRPRPLCKPRP", "shrunken log2 fold change": -0.257}
{"sequence": "RRIRTRPPRLPRPRPRPCWQPRP", "shrunken log2 fold change": 0.0902}
{"sequence": "RRIRHRPPRLPRPRPRPFIRPRP", "shrunken log2 fold change": 0.00659}
{"sequence": "RRIRGRPPRLPRPRPRPPVQPRP", "shrunken log2 fold change": 0.496}
{"sequence": "RRIRRRPPRLPRPRPRPLWFPRP", "shrunken log2 fold change": 0.396}
{"sequence": "RRIRDRPPRLPRPRPRPCGIPRP", "shrunken log2 fold change": 0.0258}
{"sequence": "RRIRQRPPRLPRPRPRPFQVPRP", "shrunken log2 fold change": 0.0303}
{"sequence": "RRIRMRPPRLPRPRPRPYFHPRP", "shrunken log2 fold change": -0.614}
{"sequence": "RRIRFRPPRLPRPRPRPENGPRP", "shrunken log2 fold change": -0.166}
{"sequence": "RRIRLRPPRLPRPRPRPNWEPRP", "shrunken log2 fold change": -0.111}
{"sequence": "RRIRFRPPRLPRPRPRPYLYPRP", "shrunken log2 fold change": -0.498}
{"sequence": "RRIRDRPPRLPRPRPRPKSGPRP", "shrunken log2 fold change": 0.0754}
{"sequence": "RRIRERPPRLPRPRPRPHYTPRP", "shrunken log2 fold change": -0.615}
{"sequence": "RRIRYRPPRLPRPRPRPRFTPRP", "shrunken log2 fold change": -0.17}
{"sequence": "RRIRYRPPRLPRPRPRPSTSPRP", "shrunken log2 fold change": 1.42}
{"sequence": "RRIRIRPPRLPRPRPRPDMTPRP", "shrunken log2 fold change": -0.01}
{"sequence": "RRIRKRPPRLPRPRPRPVVFPRP", "shrunken log2 fold change": -0.0936}
{"sequence": "RRIRLRPPRLPRPRPRPFGYPRP", "shrunken log2 fold change": -0.291}
{"sequence": "RRIRCRPPRLPRPRPRPGKWPRP", "shrunken log2 fold change": 0.107}
{"sequence": "RRIRVRPPRLPRPRPRPRTEPRP", "shrunken log2 fold change": 0.165}
{"sequence": "RRIRFRPPRLPRPRPRPCLNPRP", "shrunken log2 fold change": -0.244}
{"sequence": "RRIRDRPPRLPRPRPRPESGPRP", "shrunken log2 fold change": 0.778}
{"sequence": "RRIRQRPPRLPRPRPRPNWYPRP", "shrunken log2 fold change": -0.0479}
{"sequence": "RRIRLRPPRLPRPRPRPRKTPRP", "shrunken log2 fold change": 0.0104}
{"sequence": "RRIRQRPPRLPRPRPRPHGHPRP", "shrunken log2 fold change": -0.113}
{"sequence": "RRIRRRPPRLPRPRPRPFRCPRP", "shrunken log2 fold change": -0.15}
{"sequence": "RRIRIRPPRLPRPRPRPRKNPRP", "shrunken log2 fold change": -0.133}
{"sequence": "RRIRRRPPRLPRPRPRPHMEPRP", "shrunken log2 fold change": 0.0679}
{"sequence": "RRIRWRPPRLPRPRPRPGEFPRP", "shrunken log2 fold change": 0.17}
{"sequence": "RRIRIRPPRLPRPRPRPPHDPRP", "shrunken log2 fold change": -0.0948}
{"sequence": "RRIRTRPPRLPRPRPRPGVCPRP", "shrunken log2 fold change": 0.442}
{"sequence": "RRIRKRPPRLPRPRPRPKREPRP", "shrunken log2 fold change": 0.393}
{"sequence": "RRIRSRPPRLPRPRPRPESKPRP", "shrunken log2 fold change": 0.385}
{"sequence": "RRIRVRPPRLPRPRPRPNFIPRP", "shrunken log2 fold change": -0.168}
{"sequence": "RRIRKRPPRLPRPRPRPHKEPRP", "shrunken log2 fold change": -0.0849}
{"sequence": "RRIRIRPPRLPRPRPRPWYAPRP", "shrunken log2 fold change": -0.644}
{"sequence": "RRIRYRPPRLPRPRPRPETLPRP", "shrunken log2 fold change": -0.0879}
{"sequence": "RRIRTRPPRLPRPRPRPTIWPRP", "shrunken log2 fold change": 0.03}
{"sequence": "RRIRCRPPRLPRPRPRPRFNPRP", "shrunken log2 fold change": -0.288}
{"sequence": "RRIRGRPPRLPRPRPRPVQHPRP", "shrunken log2 fold change": 0.542}
{"sequence": "RRIRKRPPRLPRPRPRPAWHPRP", "shrunken log2 fold change": 0.378}
{"sequence": "RRIRCRPPRLPRPRPRPDEEPRP", "shrunken log2 fold change": 0.123}
{"sequence": "RRIRFRPPRLPRPRPRPAYKPRP", "shrunken log2 fold change": -0.314}
{"sequence": "RRIRTRPPRLPRPRPRPWKCPRP", "shrunken log2 fold change": -0.0161}
{"sequence": "RRIRDRPPRLPRPRPRPCLFPRP", "shrunken log2 fold change": 0.076}
{"sequence": "RRIRARPPRLPRPRPRPPANPRP", "shrunken log2 fold change": 3.4}
{"sequence": "RRIRRRPPRLPRPRPRPKIIPRP", "shrunken log2 fold change": -0.364}
{"sequence": "RRIRSRPPRLPRPRPRPGTGPRP", "shrunken log2 fold change": 0.103}
{"sequence": "RRIRQRPPRLPRPRPRPCRCPRP", "shrunken log2 fold change": -0.0134}
{"sequence": "RRIRTRPPRLPRPRPRPNVTPRP", "shrunken log2 fold change": -0.182}
{"sequence": "RRIRIRPPRLPRPRPRPHRTPRP", "shrunken log2 fold change": -0.125}
{"sequence": "RRIRWRPPRLPRPRPRPYVNPRP", "shrunken log2 fold change": -0.355}
{"sequence": "RRIRVRPPRLPRPRPRPKATPRP", "shrunken log2 fold change": 0.266}
{"sequence": "RRIRQRPPRLPRPRPRPQYGPRP", "shrunken log2 fold change": -0.0763}
{"sequence": "RRIRMRPPRLPRPRPRPYRVPRP", "shrunken log2 fold change": 0.111}
{"sequence": "RRIRHRPPRLPRPRPRPELEPRP", "shrunken log2 fold change": -0.0141}
{"sequence": "RRIRTRPPRLPRPRPRPFTFPRP", "shrunken log2 fold change": -0.187}
{"sequence": "RRIRKRPPRLPRPRPRPLWWPRP", "shrunken log2 fold change": 0.477}
{"sequence": "RRIRRRPPRLPRPRPRPTHHPRP", "shrunken log2 fold change": 0.8}
{"sequence": "RRIRPRPPRLPRPRPRPVMPPRP", "shrunken log2 fold change": 0.188}
{"sequence": "RRIRHRPPRLPRPRPRPPDDPRP", "shrunken log2 fold change": 0.256}
{"sequence": "RRIRRRPPRLPRPRPRPKQNPRP", "shrunken log2 fold change": 0.631}
{"sequence": "RRIRSRPPRLPRPRPRPIWQPRP", "shrunken log2 fold change": -0.0554}
{"sequence": "RRIRGRPPRLPRPRPRPPIKPRP", "shrunken log2 fold change": 0.403}
{"sequence": "RRIRIRPPRLPRPRPRPDGVPRP", "shrunken log2 fold change": -0.0166}
{"sequence": "RRIRYRPPRLPRPRPRPCFLPRP", "shrunken log2 fold change": -1}
{"sequence": "RRIRSRPPRLPRPRPRPGHGPRP", "shrunken log2 fold change": -0.254}
{"sequence": "RRIRYRPPRLPRPRPRPFHIPRP", "shrunken log2 fold change": -0.24}
{"sequence": "RRIRMRPPRLPRPRPRPDFWPRP", "shrunken log2 fold change": 0.778}
{"sequence": "RRIRIRPPRLPRPRPRPHFSPRP", "shrunken log2 fold change": -0.181}
{"sequence": "RRIRQRPPRLPRPRPRPQPGPRP", "shrunken log2 fold change": 0.0446}
{"sequence": "RRIRTRPPRLPRPRPRPLKSPRP", "shrunken log2 fold change": -0.0242}
{"sequence": "RRIRQRPPRLPRPRPRPQVQPRP", "shrunken log2 fold change": -0.00173}
{"sequence": "RRIRHRPPRLPRPRPRPQELPRP", "shrunken log2 fold change": -0.122}
{"sequence": "RRIRHRPPRLPRPRPRPDYTPRP", "shrunken log2 fold change": -0.00281}
{"sequence": "RRIRRRPPRLPRPRPRPNPMPRP", "shrunken log2 fold change": 0.359}
{"sequence": "RRIRSRPPRLPRPRPRPCCNPRP", "shrunken log2 fold change": -0.0171}
{"sequence": "RRIRIRPPRLPRPRPRPKPDPRP", "shrunken log2 fold change": 0.528}
{"sequence": "RRIRLRPPRLPRPRPRPGTHPRP", "shrunken log2 fold change": -0.107}
{"sequence": "RRIRKRPPRLPRPRPRPQEIPRP", "shrunken log2 fold change": 0.0636}
{"sequence": "RRIRQRPPRLPRPRPRPECNPRP", "shrunken log2 fold change": 0.062}
{"sequence": "RRIRKRPPRLPRPRPRPHYSPRP", "shrunken log2 fold change": -0.257}
{"sequence": "RRIRMRPPRLPRPRPRPARDPRP", "shrunken log2 fold change": 1.65}
{"sequence": "RRIRHRPPRLPRPRPRPIGHPRP", "shrunken log2 fold change": -0.0911}
{"sequence": "RRIRYRPPRLPRPRPRPCCYPRP", "shrunken log2 fold change": -0.363}
{"sequence": "RRIRARPPRLPRPRPRPCWIPRP", "shrunken log2 fold change": -0.197}
{"sequence": "RRIRYRPPRLPRPRPRPEKIPRP", "shrunken log2 fold change": 0.0147}
{"sequence": "RRIRIRPPRLPRPRPRPFRRPRP", "shrunken log2 fold change": 0.017}
{"sequence": "RRIRMRPPRLPRPRPRPHYKPRP", "shrunken log2 fold change": -0.539}
{"sequence": "RRIRHRPPRLPRPRPRPNWLPRP", "shrunken log2 fold change": -0.165}
{"sequence": "RRIRERPPRLPRPRPRPCDCPRP", "shrunken log2 fold change": 0.00557}
{"sequence": "RRIRHRPPRLPRPRPRPMQHPRP", "shrunken log2 fold change": 0.0685}
{"sequence": "RRIRCRPPRLPRPRPRPWMEPRP", "shrunken log2 fold change": -0.344}
{"sequence": "RRIRFRPPRLPRPRPRPSTIPRP", "shrunken log2 fold change": -0.45}
{"sequence": "RRIRFRPPRLPRPRPRPINEPRP", "shrunken log2 fold change": -0.11}
{"sequence": "RRIRERPPRLPRPRPRPTRVPRP", "shrunken log2 fold change": -0.0943}
{"sequence": "RRIRKRPPRLPRPRPRPGAYPRP", "shrunken log2 fold change": 0.0945}
{"sequence": "RRIRCRPPRLPRPRPRPRAAPRP", "shrunken log2 fold change": 0.779}
{"sequence": "RRIRARPPRLPRPRPRPSSMPRP", "shrunken log2 fold change": -0.144}
{"sequence": "RRIRMRPPRLPRPRPRPTTTPRP", "shrunken log2 fold change": 0.276}
{"sequence": "RRIRERPPRLPRPRPRPWWNPRP", "shrunken log2 fold change": -0.0135}
